Test results: the DeepSol protein solubility set

assay: soluble on expression in E. coli; label from the status in PepcDB or PDB records

Sequence	soluble on expression in E. coli
MRGSHHHHHHGMASHMATEQTAITRATFDEVILPVYAPADFIPVKGKGSRVWDQQGKEYIDFAGGIAVTALGHCHPALVEALKSQGETLWHTSNVFTNEPALRLGRKLIDATFAERVLFMNSGTEANETAFKLARHYACVRHSPFKTKIIAFHNAFHGRSLFTVSVGGQPKYSDGFGPKPADIIHVPFNDLHAVKAVMDDHTCAVVVEPIQGEGGVQAATPEFLKGLRDLCDEHQALLVFDEVQCGMGRTGDLFAYMHYGVTPDILTSAKALGGGFPVSAMLTTQEIASAFHVGSHGSTYGGNPLACAVAGAAFDIINTPEVLQGIHTKRQQFVQHLQAIDEQFDIFSDIRGMGLLIGAELKPKYKGRARDFLYAGAEAGVMVLNAGADVMRFAPSLVVEEADIHEGMQRFAQAVGKVVA	soluble
MGHHHHHHSHMQHPQTHRQLKETLYETIIGYFDKGKMWEEAISLCKELAEQYEMEIFDYELLSQNLIQQAKFYESIMKILRPKPDYFAVGYYGQGFPSFLRNKVFIYRGKEYERREDFQMQLMTQFPNAEKMNTTSAPGDDVKNAPGQYIQCFTVQPVLDEHPRFKNKPVPDQIINFYKSNYVQRFHYSRPVRRGTVDPENEFASMWIERTSFVTAYKLPGILRWFEVVHMSQTTISPLENAIETMSTANEKILMMINQYQSDETLPINPLSMLLNGIVDPAVMGGFAKYEKAFFTEEYVRDHPEDQDKLTHLKDLIAWQIPFLGAGIKIHEKRVSDNLRPFHDRMEECFKNLKMKVEKEYGVREMPDFDD	soluble
MGSDKIHHHHHHMPRPFRLSCALLHEPVSSNLMDLKYGDTSFSLAIPPERLMGVIRPSVPAPDSDPAAIISEALDRCADAIATFRTGERVVIVTSDITRYTGSEIYLPLLVERLAAAGVRERDIEIVVALGIHRKQTEHEHQRITGPLYGRIRITDHECDNPGKLVLIGRTSTGVDVVVNRTVAEADRVILTGTIGFHYFAGFGGGRKSILPGVAGRASCMASHYAVLNPGEGTGRNPLATTGNLEGNPVHQTMVEACAMVNPEFILNTVLSPAKRIIAAFAGHWREAHEEGCRFYADRFSFPLKKPADLVVVSCGGYPKDINVIQSHKSMEYGCQALRRGGVMVLLAQCRDGYGNATFFDWFRFRELDAFEARLRSHYEINGQTAFSLLQKARTFSIILVSDLPPEEVRTMGMTPARTLDEAMTAAASLLPSDYTAYVVPEGGTVLPIMM	not soluble
MSSDSDSDFGKEASKTPKRRITDCLFDSDDEVLESPGREELRKLLLSDYEDVGSVTIDTPKLKNRNVRLRGAGRPQKGGDDYKDYGRSEMEQFLRLVSDKPFLWHTKDSDFHRKKEKGMPAWAEIERTCNTFMGKGRTPGKTAAALFKKMATTYKSHLTRIQKAPSGSAVTPKKDLFCYAELMSFMDEDITHRAPTCSFIVGAGPDVDVLPTETSSSKKK	not soluble
MGSDKIHHHHHHMEQLLHYVWKHKIFPLHELQTTTGLPVEVIDTGLPNSDSGPDFFNAKLKIGGTLWVGNVEIHTASSDWFRHGHDRDIAYDSVILHIVTEIDCEIYRSNGEPVPQLRLPCPEQVKEHYDELCRADIHPPCYSILETLPKLTIHSWLTALQTERFDQKNRTITRRLQRCNQHWEDAFFITLARNFGFGLNGDAFETWANLLSFRAIDKHRDDLTQVEAFFFGQAGLLEGESADDYFSWMQKEFRYLQHKFELPPVMNPSLWRFLRLRPGNFPHVRLAQLASLYYRERSLFSRVMEAETLKDLKHIFAGHTSAYWEEHFMFGKSSPRREKSIGAGAKELIIINTVIPFLYAYGLHKADERLCERAASLLEELKAENNYVTRMWSGAGIPVQTAADSQALLQLQKEYCDKKKCLYCRFGYEYLRHK	not soluble
MFENESLSFEEQTIIQAAERYVQQELANEASGHDWWHIYRVTQLAKTIAEKEQANLFLCILTALLHDIGDEKFNESEEAGLLKVQQWLEANNVSTEQTNHILSIIANMSFKGGNTGKTVTTLEGKVVQDADRLDAIGAIGIARVMAYSGNKGRLIHDPHKQPREQLTQEEYRNGEDTAIMHFYEKLLKLKEQMNTNYGRLLAEKRHQFMELYLEEFYQEWDGHR	not soluble
MIYRKATEKDIAQLVELRKKQLEDEGIAPINNIDTELTHFFELSFKKNSFISWISEEDNEIIATSGVCFYKYPPSYLNPSGKVAYITNMYTKYEYRSRGIALALLKLVILEAKKRDYLFLRLHASDMGRPIYEEIGFKPFDDFMEMNLSLNRNGELEHHHHHH	soluble
